Reference: paper PMC9864903, “Imaging of the Glucose-Dependent Insulinotropic Polypeptide Receptor Using a Novel Radiolabeled Peptide Rationally Designed Based on Endogenous GIP and Synthetic Exendin-4 Sequences” (Pharmaceuticals, 2022)
pIC50: −log10 of the molar value. Entries after “also recorded” stand apart in the source; their conditions may differ.

Columns and labels:
[1] = dynamic PET/CT organ distribution in pig; type: in vivo; conditions: infusion of GIP(1-42) 20 pmol/kg/min
From the text: An anesthetized pig (25 kg) was positioned to include the abdomen with pancreas in the center of the 25 cm axial field of view of a Discovery MI PET/CT scanner (GE Healthcare, MI, USA) by assistance of a low-dose CT scout view (140 kV, 10 mAs). The details of the animal handling, preparation, and anesthesia have been previously described.
Attenuation correction was acquired by a 140 kV, 10–80 mA CT examination. The administration of [^68Ga]Ga-C803-GIP (17.3 MBq, corresponding to approximately 2.5 μg peptide or 0.10 μg/kg) was made upon the start of the baseline dynamic scan lasting for 90 min (30 frames; […]). The dynamic scan was followed by a static scan over the brain from 90–120 min post administration. A second PET investigation was performed after an additional 2 h to allow the radioactivity from the first scan to fade from the circulation by decay and excretion.
The GIP(1-42) infusion was continued until the end of the PET scan. Finally, after the last PET scan, a contrast-enhanced CT scan was performed to assist delineation of the tissues, e.g., the pancreas.
Segmentation of the tissues of interest (descending aorta, pancreas, spleen, kidney, liver, and muscle) was performed in PMOD (PMOD Technologies), and time–activity curves were expressed as SUV as detailed above.

[2] = chemical stability of Ga-C803-GIP at ambient temperature and pH 4.5; type: physicochemical; conditions: for at least one week at ambient temperature and pH 4.5
From the text: C803-GIP has a sequence partially similar to that of hGIP(1-30), wherein L-Alanine at position 2 was exchanged to D-Alanine, Methionine at position 14 was exchanged to Leucine, Aspartic acid at position 21 was exchanged to Glutamic acid, Valine at position 23 was exchanged to Isoleucine, Asparagine at position 24 was exchanged to Glutamic acid, Leucine at position 27 was exchanged to Lysine, and both Glutamine at position 29 and Lysine at position 30 were exchanged to Glycine. The sequence was amended with Histidine (31), Proline (32), and seven more residues corresponding to those found in exendin-4 (Serine(33)-Glycine(34)-Alanine(35)-Proline(36)-Proline(37)-Proline(38)-Serine(39)). The peptide sequence was conjugated via terminal Serine(39) to a DOTA chelator moiety functionalized with a vinyl sulfone linker and cysteine amide (Table 1). C803-GIP was loaded with stable isotopes of gallium to yield Ga-C803-GIP for the subsequent investigation of the stability and biological activity. Ga-C803-GIP was stable with a purity of over 95% for at least one week at ambient temperature and pH 4.5.

[3] = pharmacokinetics in rats after subcutaneous administration; type: in vivo; conditions: rat
From the text: The potency of the peptide conjugate in terms of EC50 was studied using C803-GIP and C803-GIP loaded with a stable isotope of gallium (Ga-C803-GIP) in HEK293 cells transfected with the GIPR from human, monkey (NHP), and rat species. In addition, the cross-reactivity was studied in HEK293 cells transfected with the GLP1-R and GCGR. […] In contrast, the EC50 for the rat GIPR was one order of magnitude poorer. […] The pharmacokinetic properties were investigated in vivo in rats. […] The average plasma concentration calculated to the infinity (AUCinf) was 1370 h*ng/mL.
Figure 1 Plasma concentration of Ga-C803-GIP measured at 3, 6, 9.6, 19.8, 30, 60, 120, and 240 min post subcutaneous administration in rats (n = 3). The error bars are not seen due to the low SD values.

[4] = system: GIPR; conditions: affinity for the GIPR; cited from earlier work
From the text: This effect may be due to the exchange of Aib(2) to A(2), L(10) to Y(10), R(16) to K(16), E(20) to Q(20), L(27) to K(27), K(31) to H(31), and the addition of the C-terminal tail ((32-39); […]). [^68Ga]Ga-C803-GIP was furthermore evaluated for its affinity, internalization, and binding specificity towards the GIPR.

YAEGTFISDYSIAMDKIHQQDFVNWLLAQKGKKNDWKHNITQ [GIP(1-42), reference compound]
effect of GIP(1-42) on uptake of [68Ga]Ga-C803-GIP in tissues [1]: did not reduce the uptake; also recorded: did not affect the uptake pattern

CC[C@H](C)[C@H](NC(=O)[C@H](CO)NC(=O)[C@H](Cc1ccc(O)cc1)NC(=O)[C@H](CC(=O)O)NC(=O)[C@H](CO)NC(=O)[C@@H](NC(=O)[C@H](Cc1ccccc1)NC(=O)[C@@H](NC(=O)CNC(=O)[C@H](CCC(=O)O)NC(=O)[C@@H](C)NC(=O)[C@@H](N)Cc1ccc(O)cc1)[C@@H](C)O)[C@@H](C)CC)C(=O)N[C@@H](C)C(=O)N[C@@H](CC(C)C)C(=O)N[C@@H](CC(=O)O)C(=O)N[C@@H](CCCCN)C(=O)N[C@H](C(=O)N[C@@H](Cc1c[nH]cn1)C(=O)N[C@@H](CCC(N)=O)C(=O)N[C@@H](CCC(N)=O)C(=O)N[C@@H](CCC(=O)O)C(=O)N[C@@H](Cc1ccccc1)C(=O)N[C@H](C(=O)N[C@@H](CCC(=O)O)C(=O)N[C@@H](Cc1c[nH]c2ccccc12)C(=O)N[C@@H](CC(C)C)C(=O)N[C@@H](CCCCN)C(=O)N[C@@H](C)C(=O)NCC(=O)NCC(=O)N[C@@H](Cc1c[nH]cn1)C(=O)N1CCC[C@H]1C(=O)N[C@@H](CO)C(=O)NCC(=O)N[C@@H](C)C(=O)N1CCC[C@H]1C(=O)N1CCC[C@H]1C(=O)N1CCC[C@H]1C(=O)N[C@@H](CO)C(=O)N[C@@H](CSCCS(=O)(=O)CCN1CCN(CC(=O)O)CCN(CC(=O)O)CCN(CC(=O)O)CC1)C(N)=O)[C@@H](C)CC)[C@@H](C)CC [Ga-C803-GIP]
purity on storage (stability) [2]: over 95% | half-life ([3]; plasma, sc, 1 mg/kg, n = 3): 22.8 min | AUCinf ([3]; 1 mg/kg, n = 3): 1370 ng·h/mL | plasma clearance (CL) ([3]; 1 mg/kg, n = 3): 12.2 mL/min/kg | plasma concentration at the 240 min time point ([3]; n = 3, 240 min post administration): below the limit of detection

[Lys37(111In-DTPA)]N-acetyl-GIP1-42
pIC50 [4]: 5.32
